What all share (assay): SPR (Biacore 8K), pMHC captured, Fab-scFv analyte
In assay [1] the target is HLA-A*02:01 loaded with PRAME peptide I7R (human, pMHC ligand was biotinylated for capture (Example 5); site or tag of biotinylation not disclosed). The method, then:
(§1) Recombinantly produced hits in Fab-scFv format, as described in Example 4, were evaluated for their ability to bind HLA-A*02:01/PRAME antigen. Binding characterization was performed by surface plasmon resonance (SPR) using a Biacore™ 8k (Cytiva) device. Briefly, 3000 RU of Biotin CAPture reagent (Cytiva) was immobilized on a Series S Sensor Chip CAP (Cytiva) and the biotinylated ligand HLA-A*02:01/PRAME (SEQ ID NO: 68) was diluted in HPS-EP+ running buffer (TEKNOVA) and captured for 300 s at a flow rate of 2 μL/min at flow cell 2 resulting in a ligand capture level of >100 RU. Subsequently, at least three consecutive analyte injections were performed at suitable concentrations applying the single-cycle-kinetics mode at a flow rate of 30 μL/min with an association time of 90 s and the dissociation time set to >400 s. The chip surface was regenerated according to the manufacturer's instructions. After reference flow cell signal and blank injections subtraction, the data was fit to a 1:1 Langmuir binding model to determine the association rate constant kₐ and dissociation rate constant kd and calculate the equilibrium dissociation constant KD (kd/kₐ), also denoted as affinity, using the Biacore™ Insight Evaluation software.
(§2) The molecular recognition profile of monovalent (Fab-scFv) antigen binding molecules M3076 and M3287 for HLA-A*02:01/PRAME binding (equivalent bivalent (Fab-(scFv)₂) antigen binding molecules are M3167 and M3292, respectively) were determined by SPR measurements with HLA-A*02:01 complexes loaded with PRAME peptide or peptides containing a single amino acid substitution to alanine, arginine or aspartic acid. The kinetic parameters for each HLA-A*02:01 complex loaded with a peptide was determined by SPR, according to the previously described method in Example 5.

Assay [2] has as its target HLA-A*02:01 loaded with PRAME peptide Q4R (human, Non-covalent three-chain complex; biotinylated for capture on the chip, site or tag of biotinylation not stated.). The method, then: as §1, §2
Assay [3] addresses HLA-A*02:01 loaded with PRAME peptide H5R (human, Non-covalent three-chain complex; biotinylated for capture on the chip, site or tag of biotinylation not stated.). The method, then:
as §1, §2

The target in assay [4] is HLA-A*02:01 loaded with PRAME peptide L3R (human, Non-covalent three-chain complex; biotinylated for capture on the chip, site or tag of biotinylation not stated.). The method, then:
as §1, §2

For assay [5], the target named is HLA-A*02:01 loaded with PRAME peptide S1R (human, Non-covalent three-chain complex; biotinylated for capture on the chip, site or tag of biotinylation not stated.). The method, then: as §1, §2
For assay [6], the target named is T1, HLA-A*02:01/PRAME antigen (recombinant, … on HLA-A*02:01) (human, Complex biotinylated for SPR capture; site of biotin and any tag not stated, not in the letters.).
T1 construct: also called PRAME target; pMHC
The method, then:
as §1, §2

In assay [7] the target is HLA-A*02:01 loaded with PRAME peptide L2R (human, Non-covalent three-chain complex; biotinylated for capture on the chip, site or tag of biotinylation not stated.). The method, then:
as §1, §2

The target of assay [8] is HLA-A*02:01 loaded with PRAME peptide L9A (human, Non-covalent three-chain complex; biotinylated for capture on the chip, site or tag of biotinylation not stated.). The method, then:
as §1, §2

Assay [9] deals with HLA-A*02:01 loaded with PRAME peptide L2A (human, Complex captured as in Example 5 (biotinylated ligand); biotin site or tag not stated, not in the letters.). The method, then:
as §1, §2

Assay [10] has as its target HLA-A*02:01 loaded with PRAME peptide H5A (human, Complex captured as in Example 5 (biotinylated ligand); biotin site or tag not stated, not in the letters.). The method, then: as §1, §2
Assay [11] concerns the target HLA-A*02:01 loaded with PRAME peptide L3A (human, Complex captured as in Example 5 (biotinylated ligand); biotin site or tag not stated, not in the letters.). The method, then:
as §1, §2

Assay [12] deals with T1, HLA-A*02:01/PRAME antigen (recombinant, …). The method, then: as §1, §2
The source holds these as a separate data set.

Assay [13] addresses HLA-A*02:01 loaded with PRAME peptide I7A (human, Complex captured as in Example 5 (biotinylated ligand); biotin site or tag not stated, not in the letters.). The method, then: as §1, §2
For assay [14], the target named is HLA-A*02:01 loaded with PRAME peptide L6A (human, Complex captured as in Example 5 (biotinylated ligand); biotin site or tag not stated, not in the letters.). The method, then:
as §1, §2

Assay [15] concerns the target HLA-A*02:01 loaded with PRAME peptide G8A (human, Non-covalent three-chain complex; biotinylated for capture on the chip, site or tag of biotinylation not stated.). The method, then:
as §1, §2

For assay [16], the target named is HLA-A*02:01 loaded with PRAME peptide S1A (human, Complex captured as in Example 5 (biotinylated ligand); biotin site or tag not stated, not in the letters.). The method, then:
as §1, §2

Assay [17] has as its target HLA-A*02:01 loaded with PRAME peptide Q4A (human, Complex captured as in Example 5 (biotinylated ligand); biotin site or tag not stated, not in the letters.). The method, then: as §1, §2

Read-outs that look alike come from different tables or passages of the source.

Usually Kd stands for the free concentration of one partner at which half of the binding sites on the other are occupied at equilibrium, for simple one-to-one binding.

B1: M3076 (bispecific antibody)
heavy: EVQLVESGGGLVQPGGSLRLSCAASGFTFSTYAMNWVRQAPGKGLEWVGRIRSKYNNYATYYADSVKGRFTISRDDSKNTLYLQMNSLRAEDTAVYYCVRHGNFGDSYVSWFAYWGQGTLVTVSSASTKGPSVFPLAPSSKSTSGGTAALGCLVKDYFPEPVTVSWNSGALTSGVHTFPAVLQSSGLYSLSSVVTVPSSSLGTQTYICNVNHKPSNTKVDKKVEPKSCGGGGSDIQMTQSPSSLSASVGDRVTITCRSSQSVYNNLLGWYQQKPGKAPKLLIYSASTLASGVPSRFSGSGSGTDFTLTISSLQPEDFATYYCQGTYYNGDWYYPFGCGTKVEIKGGGGSGGGGSGGGGSGGGGSQVQLVESGGGSVQPGRSLRLSCAASGFDFSTYGVSWVRQAPGKCLEWIGYIDPVYGSTHYADSVKGRFTISRDNSKNTLYLQMNSLRAEDTASYYCVRDLYAGSSGYYMIYSLWGQGTSVTVSS
light: QAVVTQEPSLTVSPGGTVTLTCGSSTGAVTTSNYANWVQQKPGKSPRGLIGGTNKRAPGVPARFSGSLLGGKAALTISGAQPEDEADYYCALWYSNHWVFGGGTKLTVLGQPKAAPSVTLFPPSSEELQANKATLVCLISDFYPGAVTVAWKADSSPVKAGVETTTPSKQSNNKYAASSYLSLTPEQWKSHRSYSCQVTHEGSTVEKTVAPTECS
notes: Humanized variant of M2638, monovalent Fab-scFv; bivalent equivalent is M3167
For the molecule B1, the Kd amounted to 18 nM in assay [1]; 0.08 nM in assay [2]; 93 nM in [3]; 1 nM in assay [4]; 0.08 nM in [5]; 0.08 nM in assay [6]. For the same molecule, the Kd in [7] came out at 0.04 nM; in assay [8], 1.7 nM; in assay [9] it was 0.07 nM; in assay [10], 3 nM; in assay [11], 0.19 nM; in assay [12] it was 0.08 nM. Besides, the Kd in [13] stood at 31 nM; in assay [14] it was 15 nM; in [15], 0.77 nM; in assay [16] it was 0.09 nM; in assay [17], 0.18 nM.

B2: M3287 (bispecific antibody)
heavy: EVQLVESGGGLVQPGGSLRLSCAASGFTFSTYAMNWVRQAPGKGLEWVGRIRSKYNNYATYYADSVKGRFTISRDDSKNTLYLQMNSLRAEDTAVYYCVRHGNFGDSYVSWFAYWGQGTLVTVSSASTKGPSVFPLAPSSKSTSGGTAALGCLVKDYFPEPVTVSWNSGALTSGVHTFPAVLQSSGLYSLSSVVTVPSSSLGTQTYICNVNHKPSNTKVDKKVEPKSCGGGGSDIQMTQSPSSLSASVGDRVTITCRSSQSVYNNLLGWYQQKPGKAPKLLIYSASTLASGVPSRFSGSGSGTDFTLTISSLQPEDSATYYCQGTYYTGDWYYPFGCGTKVEIKGGGGSGGGGSGGGGSGGGGSQVQLVESGGGSVQPGRSLRLSCAASGFDFSTYGVSWVRQAPGKCLEWIGYIDPVYGSTHYADSVKGRFTISRDNSKNTLYLQMNSLRAEDTASYYCVRDLYAGSSGYYVIYSLWGQGTSVTVSS
light: QAVVTQEPSLTVSPGGTVTLTCGSSTGAVTTSNYANWVQQKPGKSPRGLIGGTNKRAPGVPARFSGSLLGGKAALTISGAQPEDEADYYCALWYSNHWVFGGGTKLTVLGQPKAAPSVTLFPPSSEELQANKATLVCLISDFYPGAVTVAWKADSSPVKAGVETTTPSKQSNNKYAASSYLSLTPEQWKSHRSYSCQVTHEGSTVEKTVAPTECS
notes: Humanized variant of M2638, monovalent Fab-scFv; bivalent equivalent is M3292
Turning to B2, the Kd in assay [1] was 83 nM; in assay [2], 0.49 nM; in [4] it was 9.2 nM; in assay [5], 0.57 nM; in [6] it was 0.57 nM; in assay [7], 0.31 nM. The Kd in assay [8] was 18 nM; in assay [9] it was 0.62 nM; in assay [10], 16 nM; in assay [11], 1.6 nM; in assay [12], 0.57 nM; in [13] it was 100 nM. Besides, the Kd worked out at 67 nM in assay [14], 9.8 nM in assay [15], 1.1 nM in assay [16] and 1.2 nM in [17]. For the same molecule, the binding result in [3] is “no binding”.

For the origin of these results see patent US20250333514A1 (CDR LIFE, published 2025).
